The results in this text go back to patent US20230312722A1 (NONA BIOSCIENCES SUZHOU, published 2023).

For assay [1], the target named is T1, human B7H4 on the cell surface (human, UniProt Q7Z7D3 25-282).
T1 construct: whole, on cells; also called CHOK1/hu B7H4; B7H4 on SK-BR-3
T1 sequence (looked up): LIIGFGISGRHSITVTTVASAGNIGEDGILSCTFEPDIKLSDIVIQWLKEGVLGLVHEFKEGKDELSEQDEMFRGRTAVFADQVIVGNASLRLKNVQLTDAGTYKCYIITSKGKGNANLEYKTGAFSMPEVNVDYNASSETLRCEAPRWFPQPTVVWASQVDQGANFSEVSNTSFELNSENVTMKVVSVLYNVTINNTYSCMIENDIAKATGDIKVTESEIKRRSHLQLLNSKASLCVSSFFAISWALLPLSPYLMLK
The experiment in a line: FACS on SK-BR-3 cells. On the procedure: (§1) SK-BR-3 cells were digested. T cells were isolated using the human T cell isolation kit (Miltenyi, #130-096-535) as described in the method of the instruction, and resuspended with PBS containing 2% BSA. The cell density was adjusted to 1×10⁶ cells/mL. The cells were seeded in a 96-well V-bottom plate (Corning, #3894) at 100 μL/well, followed by the addition of test antibodies diluted in a 3-fold gradient at a concentration that was 2 times the final concentration, each at 100 μL/well. The cells were incubated at 4° C. for 2 h away from light. Thereafter, the cells in each well were rinsed twice with 100 μL of pre-cooled PBS containing 2% BSA, and centrifuged at 500 g at 4° C. for 5 min, and then the supernatant was discarded. Then each well was added with 100 μL of fluorescent secondary antibody (Alexa Fluor 488-conjugated AffiniPure Goat Anti-Human IgG, Fcγ Fragment Specific, Jackson, #109-545-098, diluted in a 1:500 ratio), and the plate was incubated away from light at 4° C. for 1 h. The cells in each well were washed twice with 100 μL of pre-cooled PBS containing 2% BSA, and centrifuged at 500 g at 4° C. for 5 minutes, and then the supernatant was discarded. Finally, the cells in each well were resuspended with 200 μL of pre-cooled PBS containing 2% BSA, and the fluorescence signal values were read using an ACEA Novocyte3000 flow cytometer.

For assay [2], the target named is T2, CD3 on human T cells (human, UniProt P07766 23-207; P04234 22-171; P09693 23-182). The experiment in a line: FACS on human T cells; EC50 printed as n.d., curve still rising at 100 nM. How it is done:
as §1

Assay [3] addresses T1, human B7H4 on the cell surface. As to the kind of experiment: FACS on SK-BR-3 cells; the printed number lies below the lowest concentration shown (0.03 nM). How it is done: as §1
For assay [4], the target named is T2, CD3 on human T cells. The experiment in a line: FACS on human T cells. On the procedure: as §1
For assay [5], the target named is T2, CD3 on human T cells. The experiment in a line: FACS on human T cells. On the procedure: as §1
This is another data set of the same source.

In assay [6] the target is T2, CD3 on human T cells. As to the kind of experiment: FACS on human T cells. How it is done: as §1
The source holds these as a separate data set.

In assay [7] the target is T2, CD3 on human T cells. The experiment in a line: FACS on human T cells. How it is done: as §1
This is another data set of the same source.

Assay [8] concerns the target T3, Human B7H4 (his tag), Sino Biological #10738-H08H (human, UniProt Q7Z7D3 25-259).
T3 construct: extracellular domain; Bought protein; also called hB7H4-ECD-his
T3 sequence (looked up): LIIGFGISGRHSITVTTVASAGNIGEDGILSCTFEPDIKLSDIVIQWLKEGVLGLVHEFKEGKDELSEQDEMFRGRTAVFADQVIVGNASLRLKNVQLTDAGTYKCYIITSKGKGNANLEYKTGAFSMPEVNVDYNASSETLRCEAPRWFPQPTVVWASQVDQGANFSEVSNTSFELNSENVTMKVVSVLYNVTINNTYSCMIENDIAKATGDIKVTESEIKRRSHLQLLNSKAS
As to the kind of experiment: SPR (Biacore T200), antibody captured on Protein A, B7H4-his as analyte, 1:1 fit. How it is done: 10×HBS-EP+ (GE Healthcare, #BR-1006-69) was diluted 10-fold and then taken as an experimental buffer. The flow rate was set at 10 μL/min, and Protein A was coupled to 4 channels of a chip CM5 (GE Healthcare, #BR-1005-30) through the following procedures: 1) the injection time was set to 800 s, and a fresh mixture of 50 mM NHS and 200 mM EDC was injected into the 4 channels in a volume ratio of 1:1; 2) Protein A was diluted to 20 μg/mL with sodium acetate (GE Healthcare, #BR-1003-50) at pH 4.5 and injected into each channel for 800 s; and 3) 1 M ethanolamine at pH 8.5 was injected for 800 s to block the remaining active carboxyl groups on the chip surface. After blocking, the instrument was equilibrated with 1×HBS-EP+buffer for 2 hours, and the final coupling level of Protein A was about 2000 RU.
A multi-cycle kinetics mode was set at Biacore T200, and each cycle included antibody capture, analyte binding and chip regeneration. […] Finally, 10 mM glycine-hydrochloric acid at pH 1.5 (GE Healthcare, #BR-1003-54) was injected at the same flow rate for 30 s to regenerate the chip.
The experimental results were analyzed using the Biacore T200 analysis software 2.0, with channel 1 subtracted as a reference channel and a 1:1 kinetic fitting model selected as an analysis model.
(In general: Surface plasmon resonance follows binding to a sensor surface in real time, without labels.)

In assay [9] the target is T4, B7-H4 (Acro Biosystems, #B74-H82E2) (UniProt Q7Z7D3 29-258).
T4 construct: Bought protein; also called B7-H4 captured on SA sensor
T4 sequence (looked up): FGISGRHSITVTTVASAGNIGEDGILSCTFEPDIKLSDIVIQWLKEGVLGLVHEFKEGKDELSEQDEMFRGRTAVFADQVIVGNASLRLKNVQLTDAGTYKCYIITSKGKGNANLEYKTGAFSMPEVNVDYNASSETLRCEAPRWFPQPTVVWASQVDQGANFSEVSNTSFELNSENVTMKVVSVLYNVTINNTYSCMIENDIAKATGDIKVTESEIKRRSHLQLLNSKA
The experiment in a line: BLI epitope competition; 1st Ab = row; competitor (2nd Ab) PR002418; inhibition of the 2nd Ab signal. How it is done: (§2) Step one, acquisition of 100% signal of antibodies: B7-H4 (Acro Biosystems, #B74-H82E2-200 μg) was captured at a capture height of 0.25 nm using an SA sensor (Fortebio, #18-5019). The sensor was equilibrated in a buffer for 120 s and then immersed in each antibody diluted to 100 nM for 240 s, and the final signal of the antibody binding to B7-H4 was recorded as the 100% signal of the antibody. Step two, epitope competition experiment: B7-H4 was captured using an SA sensor at a capture height of 0.25 nm. The sensor was immersed in a primary antibody (at a concentration of 100 nM) for 240 s, and then the SA sensor was immersed in a mixture of the primary and secondary antibodies (both at a final concentration of 100 nM) for 240 s, and the difference in signals after immersion of the sensor in the antibody mixture was recorded as the signal of the antibody as the secondary antibody. The inhibition rate was calculated according to the following formula: […]

Assay [10] addresses T4, B7-H4 (Acro Biosystems, #B74-H82E2). As to the kind of experiment: BLI epitope competition; 1st Ab = row; competitor (2nd Ab) PR002421; inhibition of the 2nd Ab signal. How it is done: as §2
Assay [11] shares this target. The experiment in a line: BLI epitope competition; 1st Ab = row; competitor (2nd Ab) Control antibody 1; inhibition of the 2nd Ab signal. How it is done: as §2
The target is the same in assay [12]. As to the kind of experiment: BLI epitope competition; 1st Ab = row; competitor (2nd Ab) Control antibody 2; inhibition of the 2nd Ab signal. On the procedure: as §2
Assay [13] concerns the target T1, human B7H4 on the cell surface. The experiment in a line: FACS on SK-BR-3 cells, expression supernatant at 1 X and 10X.

Like-named read-outs stand apart in the source and are kept apart here.

T2 sequence (P07766 23-207 limits assumed, chain 1 of 3): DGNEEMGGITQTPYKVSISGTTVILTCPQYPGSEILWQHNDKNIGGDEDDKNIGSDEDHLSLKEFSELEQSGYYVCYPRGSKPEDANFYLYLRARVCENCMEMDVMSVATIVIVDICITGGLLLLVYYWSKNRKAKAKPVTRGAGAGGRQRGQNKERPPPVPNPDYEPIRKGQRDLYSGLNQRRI
T2 sequence (P04234 22-171 limits assumed, chain 2 of 3): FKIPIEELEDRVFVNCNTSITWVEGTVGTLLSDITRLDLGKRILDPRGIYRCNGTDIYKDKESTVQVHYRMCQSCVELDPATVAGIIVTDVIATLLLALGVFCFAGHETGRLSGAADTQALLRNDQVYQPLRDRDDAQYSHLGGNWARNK
T2 sequence (P09693 23-182 limits assumed, chain 3 of 3): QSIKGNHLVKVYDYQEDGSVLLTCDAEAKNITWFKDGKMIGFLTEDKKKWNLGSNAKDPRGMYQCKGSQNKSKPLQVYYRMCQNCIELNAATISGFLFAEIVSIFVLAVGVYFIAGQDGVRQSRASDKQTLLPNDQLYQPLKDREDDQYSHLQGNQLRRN

B1: PR002994 (bispecific antibody, human IgG1, kappa, lambda, L234A L235A)
chain 1: EVQLLESGGGLVQPGGSLRLSCAASGFTFSTYAMNWVRQAPGKGLEWVSRIRSKYNNYATYYADSVKDRFTISRDDSKSTLYLQMNSLRAEDTAVYYCVRHGNFGNSYVSWFAYWGQGTLVTVSSASTKGPSVFPLAPSSKSTSGGTAALGCLVKDYFPEPVTVSWNSGALTSGVHTFPAVLQSSGLYSLSSVVTVPSSSLGTQTYICNVNHKPSNTKVDKKVEPKSC
chain 2: not shown
heavy: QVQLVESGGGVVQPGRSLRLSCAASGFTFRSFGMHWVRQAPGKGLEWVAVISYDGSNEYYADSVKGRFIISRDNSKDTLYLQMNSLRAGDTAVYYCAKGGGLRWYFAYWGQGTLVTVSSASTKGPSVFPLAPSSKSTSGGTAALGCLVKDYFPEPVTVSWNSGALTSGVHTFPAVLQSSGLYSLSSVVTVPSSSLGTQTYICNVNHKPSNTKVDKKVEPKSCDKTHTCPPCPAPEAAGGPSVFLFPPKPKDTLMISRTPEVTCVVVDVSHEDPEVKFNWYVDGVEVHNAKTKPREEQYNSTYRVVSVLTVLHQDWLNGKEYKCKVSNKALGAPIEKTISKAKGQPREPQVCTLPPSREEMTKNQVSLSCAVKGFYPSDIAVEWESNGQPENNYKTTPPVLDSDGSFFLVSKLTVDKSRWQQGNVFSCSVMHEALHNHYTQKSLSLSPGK
light: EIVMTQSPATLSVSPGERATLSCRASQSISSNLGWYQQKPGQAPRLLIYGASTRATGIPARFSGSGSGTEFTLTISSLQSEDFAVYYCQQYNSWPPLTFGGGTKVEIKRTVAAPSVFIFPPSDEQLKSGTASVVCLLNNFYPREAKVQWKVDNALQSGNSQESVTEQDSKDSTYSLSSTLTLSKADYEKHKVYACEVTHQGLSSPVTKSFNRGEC
notes: B7H4 x CD3, 2+1 asymmetric structure (structure 6): CD3 end from PR001924, two B7H4 Fabs from PR001476
Regarding B1, the “Maximum MFI” value in [1] came out at 183000; with CD3 on human T cells [2], 73000. For the same molecule, the EC50 (in general, the concentration needed to bring the measured effect to its halfway point) in assay [3] amounted to 0.006 nM.

B2: PR001924 (antibody, V domains shown)
VH: EVQLLESGGGLVQPGGSLRLSCAASGFTFSTYAMNWVRQAPGKGLEWVSRIRSKYNNYATYYADSVKDRFTISRDDSKSTLYLQMNSLRAEDTAVYYCVRHGNFGNSYVSWFAYWGQGTLVTVSS
VL: QAVVTQEPSLTVSPGGTVTLTCRSSTGAVTTSNYANWVQQKPGQAPRGLIGGTNKRAPWTPARFSGSLLGDKAALTLLGAQPEDEAEYFCALWYSNLWVFGGGTKLTVLG
notes: also called PR001924 (αCD3 IgG)
For the molecule B2, the EC50 was 7.5 nM with CD3 on human T cells [4], 7.5 nM with CD3 on human T cells [5], 6.1 nM with CD3 on human T cells [6] and 7.5 nM with CD3 on human T cells [7].

B3: Control antibody 2 (PR002962) (antibody, human IgG1, kappa, V domains shown)
VH: QLQLQESGPGLVKPSETLSLTCTVSGGSIKSGSYYWGWIRQPPGKGLEWIGNIYYSGSTYYNPSLRSRVTISVDTSKNQFSLKLSSVTAADTAVYYCAREGSYPNQFDPWGQGTLVTVSS
VL: EIVMTQSPATLSVSPGERATLSCRASQSVSSNLAWYQQKPGQAPRLLIYGASTRATGIPARFSGSGSGTEFTLTISSLQSEDFAVYYCQQYHSFPFTFGGGTKVEIKR
notes: Anti-B7H4 IgG1 control antibody from WO2019040780A1 (FivePrime), Fc mutated on the basis of PR002961 to enhance ADCC
Consider B3, for which, in assay [8], the Kd (in general, a measure of binding affinity in units of concentration) is 4.45 nM. Also, the koff (in general, a measure of how fast the partners let go of each other) in [8] turned out to be 0.00116 s⁻¹. In addition, in [8], the kon (commonly the rate constant with which the complex forms) is 261000 M⁻¹ s⁻¹. Moreover, the “Competitive inhibition rate (%)” value was determined as 4.49% in assay [9], 6.32% in assay [10], 96.6% in assay [11] and 95.8% in assay [12].

B4: PR002405 (antibody, human IgG1, kappa, V domains shown)
VH: QVQLVESGGGVVQPGRSLRLSCAASGFTFRSFGMHWVRQAPGKGLEWVAVISYEGSNEYYADSVKGRFIISRDNSKDTLYLQMNSLRAGDTAVYYCAKGGGLRWYFAYWGQGTLVTVSS
VL: EIVMTQSPATLSVSPGERATLSCRASQSISSNLGWYQQKPGQAPRLLIYGASTRATGIPARFSGSGSGTEFTLTISSLQSEDFAVYYCQQYQSWPPLTFGGGTKVEIKR
notes: variant of PR001476 (H: D54E); also called PR002405 supernatant
Regarding B4, the binding result in assay [13] is listed as “binds”.

B5: PR003899 (bispecific antibody, human IgG1, lambda, L234A L235A)
light: QAVVTQEPSLTVSPGGTVTLTCRSSTGAVTTSNYANWVQQKPGQAPRGLIGGTNKRAPWTPARFSGSLLGDKAALTLLGAQPEDEAEYFCALWYSNLWVFGGGTKLTVLGQPKAAPSVTLFPPSSEELQANKATLVCLISDFYPGAVTVAWKADSSPVKAGVETTTPSKQSNNKYAASSYLSLTPEQWKSHRSYSCQVTHEGSTVEKTVAPTECS
heavy: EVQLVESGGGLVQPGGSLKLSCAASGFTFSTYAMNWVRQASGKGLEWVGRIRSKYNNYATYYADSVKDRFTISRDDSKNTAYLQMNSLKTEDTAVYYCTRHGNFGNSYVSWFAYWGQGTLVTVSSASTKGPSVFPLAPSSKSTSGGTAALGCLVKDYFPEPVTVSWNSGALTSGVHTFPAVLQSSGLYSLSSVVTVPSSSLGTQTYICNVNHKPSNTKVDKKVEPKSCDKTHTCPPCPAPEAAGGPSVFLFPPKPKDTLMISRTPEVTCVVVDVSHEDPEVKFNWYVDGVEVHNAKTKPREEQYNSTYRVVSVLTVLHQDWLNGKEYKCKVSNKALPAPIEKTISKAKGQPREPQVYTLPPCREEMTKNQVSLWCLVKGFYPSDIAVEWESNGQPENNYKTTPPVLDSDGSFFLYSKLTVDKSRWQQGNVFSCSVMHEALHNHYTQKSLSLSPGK
chain: EIVMTQSPASLSVSPGERATLSCRASQSVSSNLAWYQQKPGQAPRLLIYGASTRATGIPARVSGGGSGTEFTLTISSLQSEDFAVYYCQQYKNWPFTFGPGTKLEIKGGGGSGGGGSGGGGSGGGGSQVQLVQSGAEVKKPGSSMRVSCKASEDTFSSYAISWVRQAPGQGLEWMGGTAPIFGTTNYAQKFQGRVTITADKSTSTAYMELSSLRSEDTAVYYCARGGPYFDYWGQGTLVTVSSASEPKSSDKTHTCPPCPAPEAAGGPSVFLFPPKPKDTLMISRTPEVTCVVVDVSHEDPEVKFNWYVDGVEVHNAKTKPREEQYNSTYRVVSVLTVLHQDWLNGKEYKCKVSNKALPAPIEKTISKAKGQPREPQVCTLPPSREEMTKNQVSLSCAVKGFYPSDIAVEWESNGQPENNYKTTPPVLDSDGSFFLVSKLTVDKSRWQQGNVFSCSVMHEALHNHYTQKSLSLSPGK
notes: B7H4 x CD3, 1+1 Fab-Fc-scFv: CD3 Fab from PR003886 (knob, LALA; weak CD3 end), B7H4 scFv(VL-VH)-Fc (hole, LALA)
On to B5, for which, in assay [1], it took 51.2 nM to reach a half-maximal effect (EC50) and the “Maximum MFI” value came to 227000. Besides, the binding result with CD3 on human T cells [6] is “no binding (tested: 100 nM)”.
